The text below walks through data of PMC11068555.

The target of the experiment is SARS-CoV-2 S Foldon his (prefusion stabilized spike ectodomain) (SARS-CoV-2 (Wuhan-Hu-1) | bacteriophage T4) (UniProt P0DTC2). The experiment is described as follows: native gel or EMSA. A general note: In EMSA bound probe runs differently from free probe, usually more slowly.

For orientation: stoichiometry N means the number of molecules, sites or subunits per partner or assembly.

Consider “SARS-CoV-2 S Foldon his (prefusion stabilized spike ectodomain) (from UniProt P0DTC2 14-1138) (domain or fragment)”, for which the stoichiometry N came out at 3.
